B1: LIM and senescent cell antigen-like-containing domain protein 2, residues 13 to 71; numbered along this chain, Q7Z4I7 (parent)
chain: AVCQRCQARFSPAERIVNSNGELYHEHCFVCAQCFRPFPEGLFYEFEGRKYCEHDFQML

± gives the uncertainty stated by the source.

Variants of B1 are the subject of the series. The series is described as follows: abundance fitness (aPCA) (normalised: wild type 0, dead -1); higher = more abundant; growth selection in yeast, the domain comes from the species named. As to conditions: Homo sapiens.
With C34A, the abundance fitness was -0.871 ± 0.18.

Consider C34W, for which the abundance fitness was -1.1 ± 0.28.

For K50V, the abundance fitness was -0.091 ± 0.075.

Turning to K50S, the abundance fitness was -0.216 ± 0.076.

For the variant K50E, the abundance fitness is -0.263 ± 0.1.

K50F: the abundance fitness was -0.3 ± 0.15.

For the variant K50N, the abundance fitness is 0.185 ± 0.17.

Regarding K50P, the abundance fitness is -0.177 ± 0.089.

In the case of M58W, the abundance fitness is -0.055 ± 0.1.

In the case of M58T, the abundance fitness turned out to be 0.123 ± 0.077.

As for M58G, the abundance fitness is 0.223 ± 0.14.

In the case of M58K, the abundance fitness amounted to 0.043 ± 0.092.

With M58Y, the abundance fitness is -0.309 ± 0.16.

Q7C: the abundance fitness is -0.194 ± 0.062.

Consider Q7G, for which the abundance fitness was 0.05 ± 0.053.

Q7S: the abundance fitness was -0.067 ± 0.042.

For the variant Q7T, the abundance fitness was 0.156 ± 0.051.

Consider Q7L, for which the abundance fitness came out at 0.068 ± 0.04.

Regarding Q7K, the abundance fitness is -0.832 ± 0.12.

For Q7N, the abundance fitness was -0.849 ± 0.12.

In the case of Q7M, the abundance fitness was 0.025 ± 0.053.

With N18R, the abundance fitness is -0.202 ± 0.072.

Turning to N18A, the abundance fitness is -0.227 ± 0.092.

As for N18G, the abundance fitness was -0.15 ± 0.11.

As for N18L, the abundance fitness is -0.615 ± 0.071.

Take N18I: the abundance fitness was -0.244 ± 0.17.

As for N18D, the abundance fitness was -0.068 ± 0.28.

For the variant C52F, the abundance fitness was -0.882 ± 0.38.

C52I: the abundance fitness is -0.918 ± 0.24.

As for C52M, the abundance fitness was -0.673 ± 0.13.

Turning to C52L, the abundance fitness is -0.817 ± 0.09.

Take C52D: the abundance fitness was -0.622 ± 0.16.

For the variant C52G, the abundance fitness was -0.731 ± 0.084.

On to C52A, for which the abundance fitness is -1 ± 0.12.

Consider R36I, for which the abundance fitness was -0.232 ± 0.1.

Regarding R36T, the abundance fitness was -0.268 ± 0.097.

R36G: the abundance fitness was -0.064 ± 0.061.

As for R36A, the abundance fitness is -0.196 ± 0.079.

Consider R36E, for which the abundance fitness stood at 0.01 ± 0.076.

In the case of R36L, the abundance fitness was -0.176 ± 0.057.

As to R36N, the abundance fitness was -0.156 ± 0.12.

R36P: the abundance fitness was -0.625 ± 0.14.

Regarding R36Y, the abundance fitness was -0.515 ± 0.16.

On to Y44K, for which the abundance fitness was -0.03 ± 0.096.

In the case of Y44P, the abundance fitness is -0.941 ± 0.17.

For Y44W, the abundance fitness is -0.145 ± 0.11.

Turning to Y44N, the abundance fitness is 0.088 ± 0.13.

For the variant Y44F, the abundance fitness was determined as 0.002 ± 0.091.

With Y44S, the abundance fitness was -0.342 ± 0.073.

E53V: the abundance fitness is -0.39 ± 0.086.

Regarding E53I, the abundance fitness is -0.147 ± 0.16.

Turning to E53L, the abundance fitness was -0.207 ± 0.061.

As to E53K, the abundance fitness is -0.21 ± 0.089.

For the variant E53T, the abundance fitness was -0.235 ± 0.085.

For E47V, the abundance fitness was -0.138 ± 0.057.

Take E47Y: the abundance fitness was -0.453 ± 0.13.

As to E47P, the abundance fitness was -0.773 ± 0.1.

Turning to E47Q, the abundance fitness is -0.204 ± 0.078.

On to E47F, for which the abundance fitness is -0.585 ± 0.15.

For the variant E47L, the abundance fitness was -0.243 ± 0.062.

Regarding E47D, the abundance fitness was -0.083 ± 0.09.

Consider E47R, for which the abundance fitness is -0.154 ± 0.044.

As to E47K, the abundance fitness is -0.274 ± 0.07.

Turning to Q4N, the abundance fitness was 0.679 ± 0.16.

As to Q4P, the abundance fitness was -0.145 ± 0.11.

As to Q4S, the abundance fitness worked out at 0.029 ± 0.064.

Turning to Q4H, the abundance fitness worked out at 0.035 ± 0.13.

Consider Q4T, for which the abundance fitness amounted to 0.051 ± 0.078.

For F56T, the abundance fitness is -0.114 ± 0.19.

As for F56S, the abundance fitness was -0.105 ± 0.22.

As to N20G, the abundance fitness amounted to 0.084 ± 0.065.

In the case of N20Q, the abundance fitness was -0.116 ± 0.11.

Turning to N20R, the abundance fitness is -0.161 ± 0.065.

N20K: the abundance fitness was found to be 0.797 ± 0.096.

N20M: the abundance fitness is -0.155 ± 0.1.

Regarding N20H, the abundance fitness worked out at 0.087 ± 0.11.

Regarding N20T, the abundance fitness was -0.085 ± 0.11.

Regarding A13H, the abundance fitness came out at 0.017 ± 0.13.

Turning to A13C, the abundance fitness is -0.176 ± 0.071.

For A13E, the abundance fitness came to 0.078 ± 0.096.

As for A13K, the abundance fitness is 0.053 ± 0.072.

Consider D55H, for which the abundance fitness worked out at 0.018 ± 0.088.

Consider D55S, for which the abundance fitness is -0.667 ± 0.063.

D55F: the abundance fitness is -1.14 ± 0.23.

As for D55Q, the abundance fitness was -0.753 ± 0.12.

As to D55E, the abundance fitness is -0.456 ± 0.088.

Take E22M: the abundance fitness was -0.093 ± 0.11.

As to E22W, the abundance fitness was -0.31 ± 0.088.

Take E22F: the abundance fitness was 0.133 ± 0.12.

Turning to E22D, the abundance fitness was -0.598 ± 0.24.

As to E22T, the abundance fitness is -0.006 ± 0.075.

As to E22R, the abundance fitness is 0.537 ± 0.053.

Take E22A: the abundance fitness came out at 0.079 ± 0.091.

With E22I, the abundance fitness was -0.162 ± 0.1.

Take E26P: the abundance fitness was -0.294 ± 0.093.

E26S: the abundance fitness is -0.051 ± 0.072.

Take E26F: the abundance fitness was -0.293 ± 0.12.

Turning to E26L, the abundance fitness was -0.401 ± 0.065.

Regarding L42G, the abundance fitness is -0.108 ± 0.066.

As for L42Q, the abundance fitness is -0.092 ± 0.11.

As for L42N, the abundance fitness is -0.012 ± 0.11.

For the variant L42T, the abundance fitness came out at 0.07 ± 0.083.

As to L42C, the abundance fitness was -0.062 ± 0.088.

Turning to L42A, the abundance fitness amounted to 0.02 ± 0.087.

For A32Y, the abundance fitness worked out at 0.147 ± 0.079.

Consider A32R, for which the abundance fitness was -0.26 ± 0.055.

For the variant A32K, the abundance fitness was -0.274 ± 0.065.

As for A32M, the abundance fitness was -0.099 ± 0.062.

On to A32W, for which the abundance fitness was -0.149 ± 0.064.

Take G21C: the abundance fitness was -0.435 ± 0.13.

Turning to G21H, the abundance fitness was -0.178 ± 0.087.

With G21V, the abundance fitness was -0.45 ± 0.071.

With G21Y, the abundance fitness was -0.518 ± 0.14.

For G21W, the abundance fitness was -0.752 ± 0.2.

As to G21S, the abundance fitness was -0.054 ± 0.063.

For the variant F43A, the abundance fitness was -0.143 ± 0.064.

As for F43L, the abundance fitness is -0.161 ± 0.059.

On to F43D, for which the abundance fitness is -0.69 ± 0.2.

Take F43Q: the abundance fitness was found to be 0.103 ± 0.084.

Take F43P: the abundance fitness was -0.042 ± 0.069.

On to F43T, for which the abundance fitness was -0.014 ± 0.065.

In the case of F43S, the abundance fitness was -0.103 ± 0.074.

In the case of H54R, the abundance fitness turned out to be 0.108 ± 0.053.

For H54W, the abundance fitness was -0.157 ± 0.08.

For the variant H54V, the abundance fitness was determined as 0.036 ± 0.061.

As to H54K, the abundance fitness was 0.117 ± 0.079.

In the case of H54N, the abundance fitness was 0.137 ± 0.12.

Turning to H54P, the abundance fitness was 0.034 ± 0.079.

H54Y: the abundance fitness is -0.061 ± 0.1.

On to H54S, for which the abundance fitness was 0.094 ± 0.063.

Regarding G41K, the abundance fitness was -0.305 ± 0.17.

Regarding G41Q, the abundance fitness is 0.096 ± 0.14.

On to G41H, for which the abundance fitness was -0.338 ± 0.079.

For the variant G41Y, the abundance fitness was -0.532 ± 0.07.

In the case of C3H, the abundance fitness was -1 ± 0.23.

C3I: the abundance fitness is -1.25 ± 0.35.

For C3T, the abundance fitness was -1.22 ± 0.26.

For C3Q, the abundance fitness was -1.33 ± 0.32.

Turning to C3W, the abundance fitness was -0.42 ± 0.13.

Regarding C3A, the abundance fitness is -0.682 ± 0.12.

Regarding R49G, the abundance fitness was -0.257 ± 0.063.

For R49N, the abundance fitness was -0.482 ± 0.34.

On to R49F, for which the abundance fitness is -0.245 ± 0.19.

Consider R49V, for which the abundance fitness was -0.123 ± 0.077.

Y51A: the abundance fitness was -0.754 ± 0.11.

As to Y51E, the abundance fitness is -0.604 ± 0.13.

As for Y51N, the abundance fitness is -0.877 ± 0.17.

Consider S19H, for which the abundance fitness was -0.19 ± 0.12.

Take S19W: the abundance fitness is -0.16 ± 0.085.

On to S19P, for which the abundance fitness is -0.29 ± 0.12.

Turning to S19V, the abundance fitness was -0.187 ± 0.074.

For the variant S19E, the abundance fitness was -0.015 ± 0.097.

Take S19K: the abundance fitness was -0.189 ± 0.12.

In the case of S19A, the abundance fitness was -0.106 ± 0.073.

Regarding C31L, the abundance fitness is -0.709 ± 0.058.

As to C31P, the abundance fitness is -0.888 ± 0.1.

On to C31E, for which the abundance fitness is -0.612 ± 0.11.

Regarding C31K, the abundance fitness was -1.1 ± 0.15.

As to C31M, the abundance fitness is -0.785 ± 0.099.

Turning to C31I, the abundance fitness was -0.76 ± 0.11.

Regarding C28F, the abundance fitness was -0.994 ± 0.22.

Take C28R: the abundance fitness was -0.718 ± 0.092.

With C28S, the abundance fitness was -0.832 ± 0.13.

C28W: the abundance fitness was -0.996 ± 0.21.

As for C28V, the abundance fitness was -0.77 ± 0.098.

In the case of C28H, the abundance fitness was -0.089 ± 0.31.

C28P: the abundance fitness is -1.13 ± 0.35.
